The text below walks through data of patent US5663314.

The target of assay [1] is Kemptide.
The target of assay [2] is Recombinant ERK2 expressed in E. coli (Rattus norvegicus (Rat)) (UniProt P63086).
The target of assay [3] is T1, Syntide-2.
T1 sequence (peptide): PLARTLSVAGLPGKK

Assay [4] addresses Histones.
The target in assay [5] is T2, ETE peptide.
T2 sequence (peptide): RRREEETEEE

Assay [6] concerns the target T3, RR-SRC peptide.
T3 sequence (peptide): RRLIEDAEYAARG

Assay [7] concerns the target T4, TEY peptide.
T4 sequence (peptide): PEHDHTGFLTEYVATRWYR

The target of assay [8] is Ribosomal S6 protein.
Assay [9] concerns the target Denatured enolase.
The target in assay [10] is T5, Band-3 peptide.
T5 sequence (peptide): MEELQDDYEDDMEERR

In assay [11] the target is T6, S6 peptide.
T6 sequence (peptide): RRLSSLRA

Assay [12] concerns the target Casein.
The target of assay [13] is bovine myelin basic protein (bovine) (UniProt P02687).
Sequence of bovine myelin basic protein (bovine) (P02687 whole entry): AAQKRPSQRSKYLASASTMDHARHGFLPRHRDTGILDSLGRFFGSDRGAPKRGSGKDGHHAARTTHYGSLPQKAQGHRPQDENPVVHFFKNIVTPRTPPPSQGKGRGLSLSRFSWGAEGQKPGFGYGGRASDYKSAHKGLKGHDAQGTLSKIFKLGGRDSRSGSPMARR

On to “MAPK activator 1 (MAPKK1a), 46 kDa polypeptide purified from EGF-stimulated A431 cells (enzyme)”, for which the Phosphorylation in assay [1] is < 0.005 nmol/min/mg; in assay [2], 150 nmol/min/mg; in assay [3] it was < 0.005 nmol/min/mg; in assay [4], 0.02 nmol/min/mg; in assay [5], < 0.005 nmol/min/mg; in assay [6], < 0.005 nmol/min/mg. Further, the Phosphorylation was 0.04 nmol/min/mg in [7]; < 0.005 nmol/min/mg in [8]; < 0.005 nmol/min/mg in assay [9]; < 0.005 nmol/min/mg in assay [10]; < 0.005 nmol/min/mg in assay [11]; < 0.005 nmol/min/mg in [12]. In [13], this substance displayed a Phosphorylation of 0.1 nmol/min/mg.
